From the supplement of paper PMC7877785
± gives the uncertainty stated by the source.

Experiment: self-splicing fitness, log relative to wild type (ln ratio); higher = more splicing; Tetrahymena group I intron in knt gene, E. coli kanamycin selection, DiMSum; sequences stand for … in CUCUCU…GGAGGGAAAAGUUAUCAGGCAUGCACCUGGUAGCUAGUCUUUAAACCAAUAGAUUGCAUCGGUUUAAAAGGCAAGACCGUCAAAUUGCGGGAAAGGGGUCAACAGCCGUUCAGUACCAAGUCUCAGGGGAAACUUUGAGAUGGCCUUGCAAAGGGUAUGGUAAUAAGCUGACGGACAUGGUCCUAACCACGCAGCCAAGUCCUAAGUCAACAGAUCUUCUGUUGAUAUGGAUGCAGUUCACAGACUAAAUGUCGGUCGGGGAAGAUGUAUUCUUCUCAUAAGAUAUAGUCGGACCUCUCCUUAAUGGGAGCUAGCGGAUGAAGUGAUGCAACACUGGAGCCGCUGGGAACUAAUUUGUAUGCGAAAGUAUAUUGAUUAGUUUUGGAGUACUCGUGGUCG
How it was run: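 DiMSum derived fitness as the error-weighted combination of fold changes across replicates, kanamycin versus no kanamycin, normalised to wild type. E. coli BL21(DE3) held the library, which randomised all eight P1ex-region intron nucleotides within the knt kanamycin-resistance gene on pET-22b(+). Six replicate transformations grew overnight at 37°C or 30°C on LB agar with or without 25 μg/mL kanamycin, also containing 100 μg/mL carbenicillin, 50 μM IPTG and 0.2% rhamnose, and pooled colonies were amplicon-sequenced on an Illumina HiSeq 2500.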

Sequence | self-splicing fitness (ln) (30 °C) | self-splicing fitness (ln) (37 °C)
AUGAAGCAAUAUUACGAUAU | -0.294 ± 0.066 | 0.229 ± 0.083
UCUGAGCAAUAUUACGGCGG | -0.492 ± 0.094 | -0.249 ± 0.14
CUUAAGCAAUAUUACGAUUC | -4.19 ± 0.46 | -2.07 ± 0.26
CAAGAGCAAUAUUACGACAU | -3.534 ± 0.024 | -2.85 ± 0.041
GACAAGCAAUAUUACGACAC | -0.384 ± 0.071 | 0.0329 ± 0.11
CAAGAGCAAUAUUACGUCAC | -3.05 ± 0.21 | -2.75 ± 0.23
AUAGAGCAAUAUUACGCACG | -1.57 ± 0.18 | -0.997 ± 0.23
GCGGAGCAAUAUUACGCGAU | -2.58 ± 0.33 | -2.18 ± 0.36
CCCAAGCAAUAUUACGAGUU | -3.89 ± 0.14 | -2.68 ± 0.14
CUACAGCAAUAUUACGCAAC | -3.66 ± 0.36 | -3.03 ± 0.29
GAUUAGCAAUAUUACGCAAU | -2.41 ± 0.33 | -1.9 ± 0.36
AGUAAGCAAUAUUACGAUAA | -2.23 ± 0.32 | -1.4 ± 0.19
CCUAAGCAAUAUUACGUUAC | -4.69 ± 0.36 | -3.03 ± 0.32
UGCGAGCAAUAUUACGUUCC | -2.19 ± 0.18 | -2.66 ± 0.34
CACGAGCAAUAUUACGAGAA | – | -1.61 ± 0.44
GAAUAGCAAUAUUACGGGCU | -2.85 ± 0.16 | -1.19 ± 0.13
AGUCAGCAAUAUUACGUGGU | -1.26 ± 0.11 | -2.37 ± 0.19
CCGUAGCAAUAUUACGCAGC | -3.54 ± 0.35 | -3.36 ± 0.25
GCCUAGCAAUAUUACGACGC | -0.302 ± 0.091 | 0.255 ± 0.11
UCUGAGCAAUAUUACGUUGG | -0.956 ± 0.13 | -0.905 ± 0.15

Sequence | self-splicing fitness (ln) (30 °C) | self-splicing fitness (ln) (37 °C)
GAGCAGCAAUAUUACGGACG | -2.19 ± 0.42 | -1.72 ± 0.33
CGGUAGCAAUAUUACGAGGC | – | -0.808 ± 0.29
GUCUAGCAAUAUUACGCUCC | -1.44 ± 0.18 | 0.66 ± 0.2
GUACAGCAAUAUUACGUAGA | -2.65 ± 0.11 | -1.35 ± 0.14
CCGAAGCAAUAUUACGUCAG | -1.47 ± 0.071 | -0.198 ± 0.11
GGUGAGCAAUAUUACGUGGU | -3.51 ± 0.47 | -2.36 ± 0.24
UGCGAGCAAUAUUACGGGCU | -2.97 ± 0.25 | –
UGAGAGCAAUAUUACGGGUA | -2.66 ± 0.37 | –
CCUCAGCAAUAUUACGUGAU | -2.84 ± 0.2 | -2.71 ± 0.43
CUAGAGCAAUAUUACGCCUU | -3.42 ± 0.19 | -0.994 ± 0.24
GGCCAGCAAUAUUACGAGGC | -2.66 ± 0.23 | -2.94 ± 0.4
ACAGAGCAAUAUUACGCGCC | -3.3 ± 0.36 | -1.83 ± 0.42
GGGAAGCAAUAUUACGCGAU | -3.63 ± 0.27 | -0.798 ± 0.17
CCAUAGCAAUAUUACGCCAU | -4.18 ± 0.31 | -2.41 ± 0.25
GAUCAGCAAUAUUACGGGAG | -1.64 ± 0.068 | -0.581 ± 0.086
CUUAAGCAAUAUUACGGGCU | -3.84 ± 0.23 | -2.98 ± 0.25
CGGAAGCAAUAUUACGGAAC | -2.23 ± 0.34 | –
UUGAAGCAAUAUUACGUUAC | – | -2.51 ± 0.23
AUCGAGCAAUAUUACGAUCA | – | -0.193 ± 0.26
CCACAGCAAUAUUACGUCGU | -4.38 ± 0.17 | -3.14 ± 0.17
